Data: patent publication US20050153887A1

How the values were obtained:
Test in all cases: cell-based or functional assay
[1] = target: Dishevelled (overexpressed in 293T cells for the reporter assay)
[2] = target: endogenous Ryk of mouse (mouse) (UniProt Q01887)
[3] = target: Ryk (DNA construct expressing Ryk, transfected into 293T cells for the reporter assays)
[4] = target: endogenous Ryk in 293T cells (human) (UniProt P34925)
UniProt P34925, sequence (P34925 other isoform, or with tags, fused parts or gaps limits assumed): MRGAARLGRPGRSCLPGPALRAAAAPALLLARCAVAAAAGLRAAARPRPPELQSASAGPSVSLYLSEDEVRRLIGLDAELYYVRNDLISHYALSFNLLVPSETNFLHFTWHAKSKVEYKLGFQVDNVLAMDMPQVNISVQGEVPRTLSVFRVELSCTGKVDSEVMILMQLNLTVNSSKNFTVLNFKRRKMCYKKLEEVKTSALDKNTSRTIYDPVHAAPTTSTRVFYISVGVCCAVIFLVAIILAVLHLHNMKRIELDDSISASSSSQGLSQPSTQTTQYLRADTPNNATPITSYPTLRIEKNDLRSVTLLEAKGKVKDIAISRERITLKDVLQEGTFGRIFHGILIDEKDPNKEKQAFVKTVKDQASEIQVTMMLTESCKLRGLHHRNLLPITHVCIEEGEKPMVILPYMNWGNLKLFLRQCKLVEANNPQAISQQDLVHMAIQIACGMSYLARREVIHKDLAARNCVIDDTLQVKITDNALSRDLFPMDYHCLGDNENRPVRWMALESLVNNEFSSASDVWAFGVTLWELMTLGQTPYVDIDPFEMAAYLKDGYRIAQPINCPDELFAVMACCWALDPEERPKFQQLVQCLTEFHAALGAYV

UniProt Q01887, sequence (Q01887 35-594 limits assumed): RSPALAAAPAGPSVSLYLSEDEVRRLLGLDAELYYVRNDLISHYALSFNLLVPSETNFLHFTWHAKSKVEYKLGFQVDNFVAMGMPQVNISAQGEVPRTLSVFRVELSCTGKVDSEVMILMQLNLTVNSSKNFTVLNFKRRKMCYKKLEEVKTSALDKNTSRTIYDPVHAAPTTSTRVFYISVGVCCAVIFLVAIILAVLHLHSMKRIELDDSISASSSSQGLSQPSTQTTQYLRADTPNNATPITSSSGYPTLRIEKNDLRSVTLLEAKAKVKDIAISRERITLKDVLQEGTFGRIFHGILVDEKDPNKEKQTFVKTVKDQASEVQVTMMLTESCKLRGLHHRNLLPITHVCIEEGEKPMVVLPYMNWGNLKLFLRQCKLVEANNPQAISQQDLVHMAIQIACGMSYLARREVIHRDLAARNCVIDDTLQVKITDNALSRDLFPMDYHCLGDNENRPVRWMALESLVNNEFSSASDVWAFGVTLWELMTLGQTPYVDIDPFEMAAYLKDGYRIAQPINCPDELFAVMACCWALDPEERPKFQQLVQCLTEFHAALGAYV

With “Ryk (DNA construct expressing Ryk, transfected into 293T cells for the reporter assays) (receptor)” the activation of the TCF-luciferase reporter on co-expression of Ryk with Dishevelled (Dishevelled alone about 15-fold) [1] was 25 fold.

“Wnt3a (Wnt3a conditioned medium) (ligand)” showed an average length of neurites of DRG explants in Wnt3a conditioned medium, Ryk siRNA mice against wild type [2] of 2 fold and an activation of the TCF-luciferase reporter in 293T cells transfected with Ryk and treated with Wnt3a conditioned medium [3] of 5 fold.

B1: Wnt-1 (cotransfected into 293T cells for the reporter assay) (ligand, UniProt P04628 28-370, looked up, species assumed)
Proto-oncogene Wnt-1: ANSSGRWWGIVNVASSTNLLTDSKSLQLVLEPSLQLLSRKQRRLIRQNPGILHSVSGGLQSAVRECKWQFRNRRWNCPTAPGPHLFGKIVNRGCRETAFIFAITSAGVTHSVARSCSEGSIESCTCDYRRRGPGGPDWHWGGCSDNIDFGRLFGREFVDSGEKGRDLRFLMNLHNNEAGRTTVFSEMRQECKCHGMSGSCTVRTCWMRLPTLRAVGDVLRDRFDGASRVLYGNRGSNRASRAELLRLEPEDPAHKPPSPHDLVYFEKSPNFCTYSGRLGTAGTAGRACNSSSPALDGCELLCCGRGHRTRTQRVTERCNCTFHWCCHVSCRNCTHTRVLHECL
With B1 the activation of the TCF-luciferase reporter in wild type 293T cells after Wnt stimulation [4] was 25 fold and the inhibition of TCF-driven transcription induced by Wnt-1 in Ryk siRNA-containing 293T cells [4] was 12 fold.
